Source: patent US6368809

Target: HA-epitope tagged E2F-4 (human) (UniProt Q16254)
Assay: cell-based or functional assay

UniProt Q16254, sequence (Q16254 whole entry): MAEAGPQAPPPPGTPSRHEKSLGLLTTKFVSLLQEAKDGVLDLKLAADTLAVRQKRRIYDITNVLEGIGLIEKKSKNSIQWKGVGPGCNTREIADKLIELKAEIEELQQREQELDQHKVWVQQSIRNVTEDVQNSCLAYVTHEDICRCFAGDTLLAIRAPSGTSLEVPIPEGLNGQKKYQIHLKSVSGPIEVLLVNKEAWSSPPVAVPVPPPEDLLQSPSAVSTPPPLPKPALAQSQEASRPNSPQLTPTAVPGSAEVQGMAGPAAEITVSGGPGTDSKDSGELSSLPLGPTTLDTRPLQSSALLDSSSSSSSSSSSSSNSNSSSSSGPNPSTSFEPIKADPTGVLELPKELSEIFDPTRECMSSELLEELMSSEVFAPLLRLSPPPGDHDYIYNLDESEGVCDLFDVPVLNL

HA-tagged p107 (from UniProt P28749 1-1068)
E2F-4 half life (pulse chase, immunoprecipitation with 12CA5, phosphorimager; free E2-F4 approximately 2-3 hours): 8 h
